Drawing on the RNAGym collection of RNA variant scans (doi:10.1093/molbev/msab373), this text covers reverse-splicing fitness for 83 variants.

B1: Azoarcus group I ribozyme (parent)
chain: GUGCCUUGCGCCGGGAAACCACGCAAGGGAUGGUGUCAAAUUCGGCGAAACCUAAGCGCCCGCCCGGGCGUAUGGCAACGCCGAGCCAAGCUUCGGCGCCUGCGCCGAUGAAGGUGUAGAGACUAGACGGCACCCACCUAAGGCAAACGCUAUGGUGAAGGCAUAGUCCAGGGAGUGGCGAAAGUCACACAAACCGG

Variants of B1 are the subject of this data set. In words: reverse-splicing fitness (ratio to wild type); higher = more active; in vitro selection; Mg2+ level not given. The method, boiled down:
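An in vitro group I ribozyme library with randomized positions was T7-transcribed and gel-purified. In triplicate, 10 pmol RNA in EPPS pH 7.5 was reacted with 50 pmoles of a 30-nt RNA substrate for 1 h at 37 °C across several added MgCl2 levels (1–48 mM), then stopped with EDTA. Products were reverse transcribed from a substrate-complementary primer, PCR-amplified and sequenced (HiSeq 4000). Fitness is a variant's read proportion after selection over that before, normalised to wild type.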
As for A111G A120C C150A, the reverse-splicing fitness was 0.124.

Take A111G A120G A145C C169U: the reverse-splicing fitness was found to be 0.219. As for A111G A120G A145C C169A, the reverse-splicing fitness is 0.158.

With A111G A120G A145C C169G, the reverse-splicing fitness was determined as 0.3. For A111G A120C C169A U176C the value was 0.0167. Under A111G A120C C169A U176A stands 0.0147; under A111G A120C C169A U176G, 0.00421; under A111G A120C A145U, 0.745. Under A111G A120G A145U C169A stands 0.174; under A111G A120G A145U C169G, 0.33.

For A111G A120G A145U C150A U176G, the reverse-splicing fitness turned out to be 0.00541. For A111G A120G A145U C150A U176C the value was 0.0234; for A111G A120G A145U C150A U176A, 0.0179. For A111G A120G A145G C150A U176C the value was 0.0374; for A111G A120G A145G C150A U176A, 0.0225. On to A111G A120G A145G C150A U176G, for which the reverse-splicing fitness amounted to 0.00788. Under A111G A120G A145G C150A C169U stands 0.0458. Under A111G A120G A145G C150A C169A stands 0.0278; under A111G A120G A145G C150A C169G, 0.0514; under A111G A120C A145U C169A U176A, 0.00811. In the case of A111G A120C A145U C169A U176G, the reverse-splicing fitness worked out at 0.00333. Under A111G A120C A145U C169A U176C stands 0.0103. Under A111G A120C A145G C150U C169U U176C stands 0.0607; under A111G A120C A145G C150U C169U U176G, 0.00537; under A111G A120C A145G C150U C169U U176A, 0.0456. Regarding A111G A120G A145C C150A C169U U176G, the reverse-splicing fitness worked out at 0.00508. For A111G A120G A145C C150A C169U U176A the value was 0.0233; for A111G A120G A145C C150A C169U U176C, 0.0129. Under A111G A120G A145G C169A U176G stands 0.00474; under A111G A120G A145G C169A U176A, 0.0489; under A111G A120G A145G C169A U176C, 0.0746. Under A111G A120G A145G C150G C169U U176C stands 0.0152. A111G A120G A145G C150G C169U U176A: the reverse-splicing fitness amounted to 0.012.

For the variant A111G A120G A145G C150G C169U U176G, the reverse-splicing fitness came out at 0.00654. For the variant A111G A120G A145G U176G, the reverse-splicing fitness is 0.00937. For A111G A120G A145G U176C the value was 0.12.

Regarding A111G A120G A145G U176A, the reverse-splicing fitness turned out to be 0.0808. For A111G A120C A145U C150G C169G the value was 0.00597. Regarding A111G A120C A145U C150G C169U, the reverse-splicing fitness was 0.0352. For A111G A120C A145U C150G C169A the value was 0.00821; for A111G A120G A145G C150A C169U U176C, 0.0305.

Regarding A111G A120G A145G C150A C169U U176G, the reverse-splicing fitness stood at 0.00605. For A111G A120G A145G C150A C169U U176A the value was 0.0309; for A111G A120C A145U C150U C169G U176G, 0.00446; for A111G A120C A145U C150U C169G U176A, 0.014. Under A111G A120C A145U C150U C169G U176C stands 0.0106; under A111G A120G A145C C150U C169G U176G, 0.00498; under A111G A120G A145C C150U C169G U176A, 0.0412.

For the variant A111G A120G A145C C150U C169G U176C, the reverse-splicing fitness was determined as 0.036. For A111G A120G A145U C150U C169A U176G the value was 0.00532; for A111G A120G A145U C150U C169A U176C, 0.0426; for A111G A120G A145U C150U C169A U176A, 0.0314. Under A111G A120C A145G U176G stands 0.0972; under A111G A120C A145G U176A, 0.457; under A111G A120C A145G U176C, 0.44. Consider A111G A120C A145U C150G C169U U176G, for which the reverse-splicing fitness amounted to 0.00422. Under A111G A120C A145U C150G C169U U176A stands 0.0072; under A111G A120C A145U C150G C169U U176C, 0.0159; under A111G A120C A145G C169U U176A, 0.064.

As to A111G A120C A145G C169U U176G, the reverse-splicing fitness came out at 0.00613. As for A111G A120C A145G C169U U176C, the reverse-splicing fitness amounted to 0.0832.

Take A111G A120C C150U C169U U176G: the reverse-splicing fitness was determined as 0.00603. For A111G A120C C150U C169U U176A the value was 0.0417; for A111G A120C C150U C169U U176C, 0.0445. Turning to A111G A120C A145U C150U C169A U176G, the reverse-splicing fitness was determined as 0.00393.

With A111G A120C A145U C150U C169A U176A, the reverse-splicing fitness came out at 0.0122.

Turning to A111G A120C A145U C150U C169A U176C, the reverse-splicing fitness came out at 0.00821. On to A111G A120G A145C C150A U176A, for which the reverse-splicing fitness was determined as 0.0131. With A111G A120G A145C C150A U176G, the reverse-splicing fitness came out at 0.00495. As to A111G A120G A145C C150A U176C, the reverse-splicing fitness was found to be 0.0131.

Consider A111G A120G A145C C150U U176C, for which the reverse-splicing fitness worked out at 0.038. Turning to A111G A120G A145C C150U U176A, the reverse-splicing fitness worked out at 0.0317. For the variant A111G A120G A145C C150U U176G, the reverse-splicing fitness was 0.00705.

In the case of A111G A120C C150G C169G, the reverse-splicing fitness turned out to be 0.0068. For A111G A120C C150G C169U the value was 0.0262; for A111G A120C C150G C169A, 0.00889; for A111G A120G A145U C150G U176C, 0.0217. Under A111G A120G A145U C150G U176A stands 0.0126; under A111G A120G A145U C150G U176G, 0.00354; under A111G A120C A145U C169U U176A, 0.0589.

Take A111G A120C A145U C169U U176C: the reverse-splicing fitness was 0.0719. For the variant A111G A120C A145U C169U U176G, the reverse-splicing fitness amounted to 0.00772. Under A111G A120C A145U C169G U176C stands 0.00882.
